Measured values published in patent US20230287125A1 (LEPU BIOPHARMA, published 2023).

Tests used:
[1] = biological target: T1, human PD-L1-Fc protein (human, UniProt Q9NZQ7 19-238); assay: ELISA, antibody titrated on coated human PD-L1-Fc, OD 450nm; upper right panel
T1 construct: coating antigen of the ELISAs; also called rhPD-L1-Fc; not shown: Fc
Experimental: (§1) To evaluate antigen binding activity, the humanized antibodies were subjected to ELISA test. Briefly, microtiter plates were coated with human PD-L1-Fc protein at 0.5 μg/ml in PBS, 100 μl/well at 4° C. overnight, then blocked with 200 μl/well of 1% BSA. Three-fold dilutions of humanized antibodies starting from 10 μg/ml were added to each well and incubated for 1 hour at 37° C. The plates were washed with PBS/Tween and then incubated with mouse-anti-human IgG Fab antibody conjugated with Horse Radish Peroxidase (HRP) for 1 hour at 37° C. After washing, the plates were developed with TMB substrate and analyzed by spectrophotometer at OD 450 nm.

[2] = biological target: T2, human PD-L1-his tag protein (human, UniProt Q9NZQ7 19-238); assay: SPR (Biacore), affinity ranking, PDL1-His
T2 construct: also called human PD-L1-His protein; recombinant PD-L1 protein; not shown: his tag
T2 sequence (Q9NZQ7 19-238 limits assumed): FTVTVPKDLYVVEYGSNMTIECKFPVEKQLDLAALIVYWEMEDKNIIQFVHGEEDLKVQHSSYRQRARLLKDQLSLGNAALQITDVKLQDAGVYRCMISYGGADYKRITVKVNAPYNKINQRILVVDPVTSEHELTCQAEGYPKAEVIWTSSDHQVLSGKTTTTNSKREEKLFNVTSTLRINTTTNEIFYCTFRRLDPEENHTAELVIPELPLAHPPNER

[3] = biological target: T1, human PD-L1-Fc protein; assay: ELISA, antibody titrated on coated human PD-L1-Fc, OD 450nm; lower left panel; the table row is headed 'IC50' on the sheet although the curves rise
Experimental: as §1

[4] = biological target: T1, human PD-L1-Fc protein; assay: ELISA, antibody titrated on coated human PD-L1-Fc, OD 450nm; lower right panel
Experimental: as §1

[5] = biological target: T1, human PD-L1-Fc protein; assay: ELISA, antibody titrated on coated human PD-L1-Fc, OD 450nm; lower left panel
Experimental: as §1

T1 sequence (Q9NZQ7 19-238 limits assumed): as above

| Binder | EC50 [1] | Kd [2] | koff [2] | kon [2] | EC50 [3] | EC50 [4] | EC50 [5] |
| --- | --- | --- | --- | --- | --- | --- | --- |
| Hu67F3G7-12 (antibody, V domains shown, humanized) VH: EVQLVQSGAEVKKPGASVKVSCKASGYTFTDFWVSWVRQAPGQGLEWMGEIYPNSGVSRYNEKFKGRVTMTVDKSISTAYMELSRLRSDDTAVYYCTKYFGYTYWFGYWGQGTLVTVSS VL: DTVLTQSPSSLSASVGDRVTITCRASKSVSTYMHWYQQKPGKQPKLLIYSASHLESGVPSRFSGSGSGTDFTLTISSLQPEDFATYYCQQSNELPVTFGGGTKVEIK | 9.53 ng/mL | 0.0351 nM | 9.01e-05 s⁻¹ | 2.56e+06 M⁻¹ s⁻¹ |  |  |  |
| Hu67F3G7-18 (antibody, V domains shown, humanized) VH: EVQLVQSGAEVKKPGASVKVSCKASGYIFTDFWVSWVRQAPGQGLEWIGEIYPNSGVSRYNEKFKGRVTMTVDKSISTAYMELSRLRSDDTAVYYCTKYFGYTYWFGYWGQGTLVTVSS VL: DTVLTQSPSLSASVGDRVTITCRASKSVSTYMHWYQQKPGKQPKLLIYSASHLESGVPSRFSGSGSGTDFTLTISSLQPEDFATYYCQQSNELPVTFGGGTKVEIK |  | 0.0331 nM | 9.51e-05 s⁻¹ | 2.88e+06 M⁻¹ s⁻¹ | 14 ng/mL |  |  |
| Hu67F3G7-15 (antibody, V domains shown, humanized) VH: EVQLVQSGAEVKKPGASVKVSCKASGYIFTDFWVSWVRQAPGKGLEWIGEIYPNSGVSRYNEKFKGRVTMTVDKSISTAYMELSRLRSDDTAVYYCTKYFGYTYWFGYWGQGTLVTVSS VL: DTVLTQSPSSLSASVGDRVTITCRASKSVSTYMHWYQQKPGKQPKLLIYSASHLESGVPSRFSGSGSGTDFTLTISSLQPEDFATYYCQQSNELPVTFGGGTKVEIK |  | 0.0371 nM | 9.69e-05 s⁻¹ | 2.61e+06 M⁻¹ s⁻¹ | 11.1 ng/mL |  |  |
| Hu67F3G7-13 (antibody, V domains shown, humanized) VH: EVQLVQSGAEVKKPGASVKVSCKASGYIFTDFWVSWVRQAPGQGLEWIGEIYPNSGVSRYNEKFKGRVTMTVDKSISTAYMELSRLRSDDTAVYYCTKYFGYTYWFGYWGQGTLVTVSS VL: DTVLTQSPSSLSASVGDRVTITCRASKSVSTYMHWYQQKPGKQPKLLIYSASHLESGVPSRFSGSGSGTDFTLTISSLQPEDFATYYCQQSNELPVTFGGGTKVEIK |  | 0.0341 nM | 9.54e-05 s⁻¹ | 2.8e+06 M⁻¹ s⁻¹ | 10.2 ng/mL |  |  |
| Hu67F3G7-14 (antibody, V domains shown, humanized) VH: EVQLVQSGAEVKKPGASVKVSCKASGYIFTDFWVSWVRQAPGQGLEWIGEIYPNSGVSRYNEKFKGRVTMTVDKSISTAYMELSRLRSDDTAVYYCARYFGYTYWFGYWGQGTLVTVSS VL: DTVLTQSPSSLSASVGDRVTITCRASKSVSTYMHWYQQKPGKQPKLLIYSASHLESGVPSRFSGSGSGTDFTLTISSLQPEDFATYYCQQSNELPVTFGGGTKVEIK |  | 0.0519 nM | 0.000109 s⁻¹ | 2.09e+06 M⁻¹ s⁻¹ | 14.4 ng/mL |  |  |
| Hu67F3G7-16 (antibody, V domains shown, humanized) VH: EVQLVQSGAEVKKPGASVKVSCKASGYTFTDFWVSWVRQAPGQGLEWMGEIYPNSGVSRYNEKFKGRVTMTVDKSISTAYMELSRLRSDDTAVYYCARYFGYTYWFGYWGQGTLVTVSS VL: DTVLTQSPSLSASVGDRVTITCRASKSVSTYMHWYQQKPGKQPKLLIYSASHLESGVPSRFSGSGSGTDFTLTISSLQPEDFATYYCQQSNELPVTFGGGTKVEIK |  | 0.0754 nM | 0.000111 s⁻¹ | 1.48e+06 M⁻¹ s⁻¹ | 11.4 ng/mL |  |  |
| Hu67F3G7-17 (antibody, V domains shown, humanized) VH: EVQLVQSGAEVKKPGASVKVSCKASGYTFTDFWVSWVRQAPGQGLEWMGEIYPNSGVSRYNEKFKGRVTMTVDKSISTAYMELSRLRSDDTAVYYCTKYFGYTYWFGYWGQGTLVTVSS VL: DTVLTQSPSLSASVGDRVTITCRASKSVSTYMHWYQQKPGKQPKLLIYSASHLESGVPSRFSGSGSGTDFTLTISSLQPEDFATYYCQQSNELPVTFGGGTKVEIK |  | 0.037 nM | 0.000101 s⁻¹ | 2.74e+06 M⁻¹ s⁻¹ | 13.6 ng/mL |  |  |

More lines, now with the values ahead:

| EC50 [1] | Kd [2] | koff [2] | kon [2] | EC50 [3] | EC50 [4] | EC50 [5] | Binder |
| --- | --- | --- | --- | --- | --- | --- | --- |
|  | 0.0347 nM | 9.36e-05 s⁻¹ | 2.7e+06 M⁻¹ s⁻¹ |  | 14.7 ng/mL |  | Hu67F3G7-20 (antibody, V domains shown, humanized) VH: EVQLVQSGAEVKKPGASVKVSCKASGYIFTDFWVSWVRQAPGKGLEWIGEIYPNSGVSRYNEKFKGRVTMTVDKSISTAYMELSRLRSDDTAVYYCTKYFGYTYWFGYWGQGTLVTVSS VL: DTVLTQSPSLSASVGDRVTITCRASKSVSTYMHWYQQKPGKQPKLLIYSASHLESGVPSRFSGSGSGTDFTLTISSLQPEDFATYYCQQSNELPVTFGGGTKVEIK |
|  | 0.0545 nM | 0.000107 s⁻¹ | 1.97e+06 M⁻¹ s⁻¹ |  | 13.2 ng/mL |  | Hu67F3G7-19 (antibody, V domains shown, humanized) VH: EVQLVQSGAEVKKPGASVKVSCKASGYIFTDFWVSWVRQAPGQGLEWIGEIYPNSGVSRYNEKFKGRVTMTVDKSISTAYMELSRLRSDDTAVYYCARYFGYTYWFGYWGQGTLVTVSS VL: DTVLTQSPSLSASVGDRVTITCRASKSVSTYMHWYQQKPGKQPKLLIYSASHLESGVPSRFSGSGSGTDFTLTISSLQPEDFATYYCQQSNELPVTFGGGTKVEIK |
|  | 0.156 nM | 8.43e-05 s⁻¹ | 540000 M⁻¹ s⁻¹ |  | 9.19 ng/mL |  | Hu67F3G7-21 (antibody, V domains shown, humanized) VH: EVQLVQSGAEVKKPGASVKVSCKASGYTFTDFWVSWVRQAPGQGLEWMGEIYPNSGVSRYNEKFKGRVTMTVDKSISTAYMELSRLRSDDTAVYYCARYFGYTYWFGYWGQGTLVTVSS VL: DIQMTQSPSSLSASVGDRVTITCRASKSVSTYMHWYQQKPGKQPKLLIYSASHLESGVPSRFSGSGSGTDFTLTISSLQPEDFATYYCQQSNELPVTFGGGTKVEIK |
| 7.41 ng/mL | 0.102 nM | 6.66e-05 s⁻¹ | 655000 M⁻¹ s⁻¹ |  |  |  | Hu89C10H8-8 (antibody, V domains shown, humanized) VH: EVQLVESGGGLVKPGGSLRLSCAASGFTFSNYWMTWIRQAPGKGLEWVASITNTGSSTFYPDSVKGRFTISRDNAKSSLYLQMNSLRAEDTAVYYCTRDTTIAPFDYWGQGTMVTVSS VL: DIQMTQSPSSLSASVGDRVTITCKASQNLNEYLNWYQQKPGKAPKRLIYKTNTLQAGIPSRFSGSGSGTDYTLTISSLQPEDFATYYCSQYNSGNTFGQGTKLEIK |
|  | 0.137 nM | 9.75e-05 s⁻¹ | 712000 M⁻¹ s⁻¹ |  |  | 9.83 ng/mL | Hu89C10H8-14 (antibody, V domains shown, humanized) VH: EVQLVESGGGLVKPGGSLRLSCAASGFTFSNYWMTWVRQAPGKGLEWVASITNTGSSTFYPDSVKGRFTISRDNAKNSLYLQMNSLRAEDTAVYYCTRDTTIAPFDYWGQGTMVTVSS VL: DIQMTQSPSSLSASVGDRVTITCKASQNLNEYLNWYQQKLGEAPKRLIYKTNTLQAGIPSRFSGSGSGIDYTLTISSLQPEDFATYFCSQYNSGNTFGQGTKLEIK |
|  | 0.098 nM | 6.54e-05 s⁻¹ | 667000 M⁻¹ s⁻¹ |  |  | 7.57 ng/mL | Hu89C10H8-16 (antibody, V domains shown, humanized) VH: EVQLVESGGGLVKPGGSLRLSCAASGFTFSNYWMTWIRQAPGKGLEWVASITNTGSSTFYPDSVKGRFTISRDNAKSSLYLQMNSLRAEDTAVYYCTRDTTIAPFDYWGQGTMVTVSS VL: DIQMTQSPSSLSASVGDRVTITCKASQNLNEYLNWYQQKLGEAPKRLIYKTNTLQAGIPSRFSGSGSGIDYTLTISSLQPEDFATYFCSQYNSGNTFGQGTKLEIK |
| 7.82 ng/mL | 0.151 nM | 8.99e-05 s⁻¹ | 595000 M⁻¹ s⁻¹ |  |  |  | Hu89C10H8-10 (antibody, V domains shown, humanized) VH: EVQLVESGGGLVKPGGSLRLSCAASGFTFSNYWMTWVRQAPGKGLEWVASITNTGSSTFYPDSVKGRFTISRDNAKNSLYLQMNSLRAEDTAVYYCTRDTTIAPFDYWGQGTMVTVSS VL: DIQMTQSPSSLSASVGDRVTITCKASQNLNEYLNWYQQKPGKAPKRLIYKTNTLQAGIPSRFSGSGSGIDYTLTISSLQPEDFATYYCSQYNSGNTFGQGTKLEIK |
|  | 0.0918 nM | 7.17e-05 s⁻¹ | 781000 M⁻¹ s⁻¹ |  |  | 8.8 ng/mL | Hu89C10H8-15 (antibody, V domains shown, humanized) VH: EVQLVESGGGLVKPGGSLRLSCAASGFTFSNYWMTWIRQAPGKGLEWVASITNTGSSTFYPDSVKGRFTISRDNAKNSLYLQMNSLRAEDTAVYYCTRDTTIAPFDYWGQGTMVTVSS VL: DIQMTQSPSSLSASVGDRVTITCKASQNLNEYLNWYQQKLGEAPKRLIYKTNTLQAGIPSRFSGSGSGIDYTLTISSLQPEDFATYFCSQYNSGNTFGQGTKLEIK |
| 8.42 ng/mL | 0.713 nM | 0.000478 s⁻¹ | 671000 M⁻¹ s⁻¹ |  |  |  | Hu89C10H8-9 (antibody, V domains shown, humanized) VH: EVQLVESGGGLVKPGGSLRLSCAASGFTFSNYWMTWVRQAPGKGLEWVASITNTGSSTFYPDSVKGRFTISRDNAKNSLYLQMNSLRAEDTAVYYCARDTTIAPFDYWGQGTMVTVSS VL: DIQMTQSPSSLSASVGDRVTITCKASQNLNEYLNWYQQKPGKAPKRLIYKTNTLQAGIPSRFSGSGSGIDYTLTISSLQPEDFATYYCSQYNSGNTFGQGTKLEIK |
|  | 0.561 nM | 0.000433 s⁻¹ | 764000 M⁻¹ s⁻¹ |  |  | 9.94 ng/mL | Hu89C10H8-13 (antibody, V domains shown, humanized) VH: EVQLVESGGGLVKPGGSLRLSCAASGFTFSNYWMTWVRQAPGKGLEWVASITNTGSSTFYPDSVKGRFTISRDNAKNSLYLQMNSLRAEDTAVYYCARDTTIAPFDYWGQGTMVTVSS VL: DIQMTQSPSSLSASVGDRVTITCKASQNLNEYLNWYQQKLGEAPKRLIYKTNTLQAGIPSRFSGSGSGIDYTLTISSLQPEDFATYFCSQYNSGNTFGQGTKLEIK |
